Residue numbers refer to the chain shown, from its start.
Assays:
[1] = biological target: T1, GFP-tagged active Vps21p mutant (Q66L) (S. cerevisiae, UniProt P36017 1-210, Q66L); assay: pull-down; extract of yeast cells expressing GFP-tagged Vps21p mutant incubated with GST-GNB-bound Glutathione sepharose-4B; washed; incubated with Nluc-RbNT at 200 nM; bound fractions blotted with anti-6×His or anti-GFP antibody; conditions: both partners purified
T1 construct: Vps21p (yeast Rab5), Saccharomyces cerevisiae, constitutively active mutant; also called Vps21Q66L; constitutively active Q66L mutant of Vps21p
T1 sequence (looked up): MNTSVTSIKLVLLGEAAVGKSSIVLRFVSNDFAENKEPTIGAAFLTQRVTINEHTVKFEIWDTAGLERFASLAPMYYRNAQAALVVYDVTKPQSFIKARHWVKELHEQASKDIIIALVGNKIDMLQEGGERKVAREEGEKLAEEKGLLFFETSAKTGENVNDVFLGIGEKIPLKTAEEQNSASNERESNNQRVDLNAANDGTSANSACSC

GFP-ALFA-Vps21p = biological target: T2, GFP-ALFA-Vps21p (S. cerevisiae, UniProt P36017 1-210); assay: pull-down; GFP-ALFA-Vps21p from 600 μg cleared lysate of wild-type yeast held on GST-ANB Glutathione sepharose-4B; washed (20 mM Tris-HCl pH 8.0, 500 mM NaCl, 10 mM MgCl2, 0.1% NP-40); 10 pmole 6×His-RbNT-Nluc added, 1 hr in the cold room; eluted with ALFA peptide; Nluc activity read. Also run on ent3Δ ent5Δ, ent3Δ ent5Δ apl4Δ, pik1-1, pik1-1 ent3Δ, pik1-1 ypt31ts and pik1-1 ypt31ts gga1Δ gga2Δ cells.; conditions: both partners purified
T2 construct: Vps21p (yeast Rab5), Saccharomyces cerevisiae; The ALFA peptide lies between GFP and Vps21p, by the printed name; also called Rab5; yeast Rab5 (Vps21p); not shown: GFP, N-terminal, kept; ALFA peptide, N-terminal, kept
T2 sequence (looked up): T1 sequence (looked up) with L66Q

binding result [1]: binds | binding result (GFP-ALFA-Vps21p): binds
B1: 6×His-Nano luciferase (Nluc)-Rabenosyn5 N-terminal fragment (domain or fragment, human, UniProt Q9H1K0 1-40, looked up)
chain: MASLDDPGEVREGFLCPLCLKDLQSFYQLHSHYEEEHSGE
notes: Rabenosyn-5, human, N-terminal fragment (1-40 a.a.), RbNT; The legends name it 6×His-Nluc-RbNT and the methods 6×His-RbNT-Nluc; The cloning sites (Nluc at XhoI/EcoRI, RbNT at EcoRI/HindIII of pColdI) fit His-Nluc-RbNT; also called Nluc-RbNT; 6×His-RbNT-Nluc; source: E. coli KRX, purified (Ni-NTA agarose); not shown: His6, N-terminal, kept; Nano luciferase, N-terminal, kept

— paper doi:10.1101/2023.03.27.534325, “Distinct role of TGN-resident clathrin adaptors for Rab5 activation in the TGN-endosome trafficking pathway” (bioRxiv, 2023)
